# Laboratory results as given in patent US10538591B2, “Anti-fibulin-3 antibodies and uses thereof” (THE BRIGHAM AND WOMEN'S HOSPITAL, INC., priority 2014, dated 2020).
# Several values for one entry are separate records, joined by “and”; a condition that tells them apart may be missing. Equal values may be shown once. Entries after “also recorded” stand apart in the source; their conditions may differ.
# T1: fibulin-5 (Homo sapiens, UniProt Q9UBX5)
# T1 sequence (Q9UBX5 24-448): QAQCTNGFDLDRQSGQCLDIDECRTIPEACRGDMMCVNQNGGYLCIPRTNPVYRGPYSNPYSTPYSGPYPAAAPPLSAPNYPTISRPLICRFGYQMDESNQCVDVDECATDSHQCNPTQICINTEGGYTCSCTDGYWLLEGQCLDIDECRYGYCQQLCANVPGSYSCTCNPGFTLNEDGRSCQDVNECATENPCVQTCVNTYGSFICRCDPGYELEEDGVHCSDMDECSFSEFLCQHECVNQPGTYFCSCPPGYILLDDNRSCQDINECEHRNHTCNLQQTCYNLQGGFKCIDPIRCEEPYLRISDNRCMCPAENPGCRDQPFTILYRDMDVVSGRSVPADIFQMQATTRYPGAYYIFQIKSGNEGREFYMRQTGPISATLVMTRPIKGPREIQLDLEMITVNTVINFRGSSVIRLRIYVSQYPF
# Tests used:
# [1] = tested on: fibulin-3-induced Notch signaling; assay: Notch-reporter luminescent assay in CNS1 glioma cells transfected with fibulin-3 cDNA; assay type: cell-based; settings: for effect on fibulin-3-induced Notch activity: monoclonal antibody 100 μg/ml, 0, 2, 6 and 24 h
# Protocol: Glioma cells (CNS I line) carrying a Notch-reporter luminescent system were transfected with fibulin-3 cDNA (or a control plasmid) and incubated in serum-free conditions for 24 h.
# Antibodies against fibulin-3 block the molecular mechanism triggered by this protein. To confirm whether the cytotoxic effects were related to specific inhibition of the molecular mechanisms of fibulin-3, the antibody anti-Fib3/911 was added to glioma cells (CNS1 cell line) that had been transfected to overexpress fibulin-3. Overexpression of fibulin-3 in the glioma cells increased Notch signaling activity as expected.
# Glioma cells (CNS1 line) carrying a Notch-driven luminescent reporter system were transfected with fibulin-3 cDNA (Fib3 OE) or a control plasmid (Control) and incubated in serum-free conditions for 24 h. The following day the antibodies anti-Fib3/911 (50 μg/ml) or mAb428.3C11 (100 μg/ml) were added to the cultures and Notch activity was measured after 0, 2, 6, and 24 h.
# Glioma cells (CNS1 line) carrying a Notch-driven luminescent reporter system were transfected with fibulin-3 cDNA (Fib3 OE) or a control plasmid (Control) and incubated in serum-free conditions for 24 h. Results on the left panel show the effect of adding mAb428.2 (100 μg/ml), followed by measurement of Notch activity after 0, 2, 6, and 24 h. Results on the right panel show the effect of adding variable concentrations of mAb428.2 (0, 5, 10, 25, 50, and 100 μg/ml), followed by measurement of Notch activity after 6 h.
# [2] = biological target: T1, fibulin-5; assay: Cross-reactivity against homologous fibulin-5; assay type: binding
# [3] = Acute toxicity, single IV injection dose-escalation; assay type: in vivo, athymic mice; parameters: Endpoint weight / Endpoint weight Average: unit not given here; Pre-inject weight / Pre-inject weight Average: unit: g; settings: for Endpoint weight Average / Pre-inject weight Average: group average; for Endpoint weight / Pre-inject weight: individual mouse
# Protocol: Table 2 summarizes the results of acute toxicity assays for mAb428.2 injected intravenously (IV) into mice. A dose-escalation study was performed with athymic mice that received a single IV injection of mAb428.2 (purified in low-endotoxin conditions). Doses ranged from 0.1 to 30 mg/kg and mice were observed (and weighed) for periods ranging from 15 minutes to 14 days after injection. Mice were perfused with 4% paraformaldehyde and several organs were recovered, processed for histochemistry and analyzed by a specialist in rodent histopathology. Note that recovered organs and tissues for FFPE+H&E processing were: cerebrum, cerebellum, eyes, liver, kidney, skin, forepaws (to assess connective tissue). This study was performed independently at the Beth Israel Deaconess Medical Center Preclinical Murine Pharmacogenomics Core and tissues were evaluated at the Dana-Farber/Harvard Cancer Center Rodent Histopathology Core.
# [4] = 0.1 mg/kg IV, 15 min after injection
# [5] = 0.1 mg/kg IV, 24 h after injection
# [6] = 0.1 mg/kg IV, 4 days after injection
# [7] = 0.1 mg/kg IV, 14 days after injection
# [8] = 1 mg/kg IV, 15 min after injection
# [9] = 1 mg/kg IV, 24 h after injection
# [10] = 1 mg/kg IV, 4 days after injection
# [11] = 1 mg/kg IV, 14 days after injection
# [12] = 10 mg/kg IV, 15 min after injection
# [13] = 10 mg/kg IV, 24 h after injection
# [14] = 10 mg/kg IV, 4 days after injection
# [15] = 10 mg/kg IV, 14 days after injection
# [16] = 30 mg/kg IV, 24 h after injection
# [17] = 30 mg/kg IV, 4 days after injection
# [18] = 30 mg/kg IV, 14 days after injection
# [19] = single IV injection 0.1 to 30 mg/kg, 15 minutes to 14 days
molecule,measurement,setting,value
"mAb428.2: mouse monoclonal IgG1 kappa antibody against human fibulin-3 peptide SEQ ID NO:2; VH SEQ ID NO: 3, VL SEQ ID NO: 4 (antibody, V domains shown) VH: QIQLVQSGPELKKPGETVKISCKASGYSFTTYGMSWVKQAPGKGLKWMGWINTYSGVPTYADDFKGRFAFFLETSASTAYLQINNLKNEDTATYFCARWVDYWGQGTTLTVSS VL: DIKMTQSPSSMYASLGERVTITCKASQDIKSYLSWHQQKPWKSPKTLIYYATSLADGVPSRFSGSGSGQDYSLTISSLESDDTATYYCLQHGKSPYTFGGGTKLEIK",dependence of Notch inhibition,"[1]; 0, 5, 10, 25, 50 and 100 μg/ml, 6 h, 100 μg/ml over 0-24 h",time- and concentration-dependent
same,effect on fibulin-3-induced Notch activity,[1],blocked fibulin-3-dependent Notch activation; also recorded: strong inhibitory effect
same,effect on fibulin-3-induced Notch activity,[1]; listed as mAb428.3C11,blocked
same,fibulin-3 effect on Notch activation,"[1]; t=4 h, anti-Fib3/911 50 μg/ml, mAb428.3C11 100 μg/ml",completely abolished fibulin-3 effects on Notch activation
same,levels of Notch activity,"[1]; t=24 h, anti-Fib3/911 50 μg/ml, mAb428.3C11 100 μg/ml",indistinguishable from controls
same,cross-reactivity against fibulin-5,[2],no cross-reactivity
same,Endpoint weight Average,[3]; [4],24.27
same,Endpoint weight,[3]; [4],24.80 and 25.60 and 22.40
same,Endpoint weight Average,[3]; [5],25.27
same,Endpoint weight,[3]; [5],25.40 and 26.50 and 23.90
same,Endpoint weight Average,[3]; [6],24.53
same,Endpoint weight,[3]; [6],25.20 and 24.00 and 24.40
same,Endpoint weight Average,[3]; [7],23.93
same,Endpoint weight,[3]; [7],25.20 and 24.90 and 21.70
same,Pre-inject weight Average,"[3]; 0.1 mg/kg IV, endpoint 15 min",23.95
same,Pre-inject weight,"[3]; 0.1 mg/kg IV, endpoint 15 min, measured the day before injection",21.60 and 26.30 and 19.7 (*)
same,Pre-inject weight Average,"[3]; 0.1 mg/kg IV, endpoint 24 h",24.93
same,Pre-inject weight,"[3]; 0.1 mg/kg IV, endpoint 24 h",25.10 and 26.30 and 23.40
same,Pre-inject weight Average,"[3]; 0.1 mg/kg IV, endpoint 4 days",24.93
same,Pre-inject weight,"[3]; 0.1 mg/kg IV, endpoint 4 days",25.10 and 24.80 and 24.90
same,Pre-inject weight Average,"[3]; 0.1 mg/kg IV, endpoint 14 days",22.40
same,Pre-inject weight,"[3]; 0.1 mg/kg IV, endpoint 14 days",24.10 and 24.70 and 18.40
same,Endpoint weight Average,[3]; [8],24.40
same,Endpoint weight,[3]; [8],25.20 and 24.00 (2×)
same,Endpoint weight Average,[3]; [9],26.30
same,Endpoint weight,[3]; [9],25.80 and 26.30 and 26.80
same,Endpoint weight Average,[3]; [10],23.93
same,Endpoint weight,[3]; [10],25.00 and 22.80 and 24.00
same,Endpoint weight Average,[3]; [11],24.37
same,Endpoint weight,[3]; [11],24.60 and 24.00 and 24.50
same,Pre-inject weight Average,"[3]; 1 mg/kg IV, endpoint 15 min",24.77
same,Pre-inject weight,"[3]; 1 mg/kg IV, endpoint 15 min, measured the day before injection",25.30 and 24.60 and 24.40
same,Pre-inject weight Average,"[3]; 1 mg/kg IV, endpoint 24 h",26.13
same,Pre-inject weight,"[3]; 1 mg/kg IV, endpoint 24 h",25.80 and 25.90 and 26.70
same,Pre-inject weight Average,"[3]; 1 mg/kg IV, endpoint 4 days",24.23
same,Pre-inject weight,"[3]; 1 mg/kg IV, endpoint 4 days",25.30 and 22.80 and 24.60
same,Pre-inject weight Average,"[3]; 1 mg/kg IV, endpoint 14 days",24.30
same,Pre-inject weight,"[3]; 1 mg/kg IV, endpoint 14 days",24.60 and 23.80 and 24.50
same,Endpoint weight Average,[3]; [12],23.60
same,Endpoint weight,[3]; [12],23.50 and 22.90 and 24.40
same,Endpoint weight Average,[3]; [13],26.47
same,Endpoint weight,[3]; [13],26.30 and 25.60 and 27.50
same,Endpoint weight Average,[3]; [14],24.00
same,Endpoint weight,[3]; [14],24.70 and 23.60 and 23.70
same,Endpoint weight Average,[3]; [15],25.30
same,Endpoint weight,[3]; [15],25.10 and 24.80 and 26.00
same,Pre-inject weight Average,"[3]; 10 mg/kg IV, endpoint 15 min",23.60
same,Pre-inject weight,"[3]; 10 mg/kg IV, endpoint 15 min, measured the day before injection",23.60 and 23.20 and 24.00
same,Pre-inject weight Average,"[3]; 10 mg/kg IV, endpoint 24 h",26.00
same,Pre-inject weight,"[3]; 10 mg/kg IV, endpoint 24 h",26.20 and 25.00 and 26.80
same,Pre-inject weight Average,"[3]; 10 mg/kg IV, endpoint 4 days",24.03
same,Pre-inject weight,"[3]; 10 mg/kg IV, endpoint 4 days",24.70 and 24.00 and 23.40
same,Pre-inject weight Average,"[3]; 10 mg/kg IV, endpoint 14 days",24.90
same,Pre-inject weight,"[3]; 10 mg/kg IV, endpoint 14 days",24.60 and 24.40 and 25.70
same,Endpoint weight Average,[3]; [16],26.40
same,Endpoint weight,[3]; [16],27.40 and 26.30 and 25.50
same,Endpoint weight Average,[3]; [17],24.70
same,Endpoint weight,[3]; [17],25.20 and 26.30 and 22.60
same,Endpoint weight Average,[3]; [18],23.70
same,Endpoint weight,[3]; [18],25.50 and 23.70 and 21.90
same,Pre-inject weight Average,"[3]; 30 mg/kg IV, endpoint 24 h",26.20
same,Pre-inject weight,"[3]; 30 mg/kg IV, endpoint 24 h",27.40 and 26.10 and 25.10
same,Pre-inject weight Average,"[3]; 30 mg/kg IV, endpoint 4 days",23.73
same,Pre-inject weight,"[3]; 30 mg/kg IV, endpoint 4 days",24.00 and 25.30 and 21.90
same,Pre-inject weight Average,"[3]; 30 mg/kg IV, endpoint 14 days",22.90
same,Pre-inject weight,"[3]; 30 mg/kg IV, endpoint 14 days",24.20 and 23.20 and 21.30
same,maximum tolerated dose before causing toxicity (MTD),[3]; single IV injection,> 30 mg/kg
same,histopathology in tissues stained by H&E,[3]; single IV injection 0.1 to 30 mg/kg,no evidence of histopathology
same,adverse effects,[3]; [19],no adverse effects after injection
same,weight loss,[3]; [19],no weight loss
